Test results from article PMC11779939, “Identification of novel 7-hydroxycoumarin derivatives as ELOC binders with potential to modulate CRL2 complex formation” (Scientific Reports, 2025).
Non-standard residues stand in square brackets, D forms with d. No end group written: not given here. *: point of attachment. FITC = O=C1OC2(c3ccc(O)cc3Oc3cc(O)ccc32)c2ccc(NC(=S)*)cc21; Hyp = O=C(O)[C@@H]1C[C@@H](O)CN1

Target: VHL-ELOB-ELOC (VBC) complex (UniProt P40337 54-213; Q15370 1-104; Q15369 17-112)
Test: fluorescence polarisation; competitive FP for fragment screening, 384-well plates; 0.5 uM VBC, 20 nM FITC peptide, 10 mM HEPES pH 7.5, 0.0025% Tween 20, 50 mM NaCl, 1 mM EDTA, 1 mM DTT; small-molecule competitors (VH032 as reference)
Details: both partners purified

## {FITC}-LEALA[Hyp]YIPA [FITC-LEALA-HyP-YIPA peptide]
  binding result: binds
